Article PMC6735382

Key:
[1] = target: Clover-PPARγ1 (human peroxisome proliferator-activated receptor gamma isoform 1, N-terminally labeled with Clover) (human) (UniProt P37231); assay: FRET or BRET; flow cytometry-based FRET (Clover donor, mRuby2 acceptor) in living, stably transduced HEK293T cells; percent FRET-positive among Clover/mRuby2-double positive cells and FRET efficiency from fluorescence medians; N-CoR2 WT cells also treated 24 h with DMSO, 1 µM rosiglitazone, 10 µM GW9662 or both
[2] = target: Clover-PPARγ1 (human peroxisome proliferator-activated receptor gamma isoform 1, N-terminally labeled with Clover) (human) (UniProt P37231)

Chain of UniProt P37231 (P37231 29-505): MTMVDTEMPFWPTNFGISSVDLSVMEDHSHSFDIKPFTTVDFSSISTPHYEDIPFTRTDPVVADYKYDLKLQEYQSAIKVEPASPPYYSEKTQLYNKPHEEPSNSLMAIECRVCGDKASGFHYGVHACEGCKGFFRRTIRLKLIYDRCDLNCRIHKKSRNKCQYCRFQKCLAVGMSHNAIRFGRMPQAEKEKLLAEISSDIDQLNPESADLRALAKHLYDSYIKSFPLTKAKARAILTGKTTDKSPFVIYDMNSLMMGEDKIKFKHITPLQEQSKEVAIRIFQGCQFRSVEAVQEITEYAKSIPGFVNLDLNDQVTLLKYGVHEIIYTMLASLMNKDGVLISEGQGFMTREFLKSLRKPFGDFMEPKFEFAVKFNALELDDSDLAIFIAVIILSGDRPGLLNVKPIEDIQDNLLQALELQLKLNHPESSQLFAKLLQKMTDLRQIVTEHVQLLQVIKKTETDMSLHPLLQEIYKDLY

percent FRET-positive cells [1]: 70%
PPARγ-dependent transactivation (PPRE reporter p(AOX)3-TK-Luc) in HEK293T cells, 1 µM rosiglitazone 24 h against DMSO [2]: 3.5 fold
Substance: N-CoR2 WT-mRuby2 (N-terminally truncated human nuclear receptor co-repressor 2 with ID2 and ID1, C-terminally labeled with mRuby2) (domain or fragment)
